Assay [1] concerns the target T1, recombinant human CLL-1 extracellular domain (ECD, amino acids 65-265) fused to an N-terminal Flag (human, UniProt Q5QGZ9 65-265).
T1 construct: The construct and the K244Q SNP are stated for the immunogen; they are not written as a piece; also called huCLL-1-Flag; huCLL-1
T1 chain: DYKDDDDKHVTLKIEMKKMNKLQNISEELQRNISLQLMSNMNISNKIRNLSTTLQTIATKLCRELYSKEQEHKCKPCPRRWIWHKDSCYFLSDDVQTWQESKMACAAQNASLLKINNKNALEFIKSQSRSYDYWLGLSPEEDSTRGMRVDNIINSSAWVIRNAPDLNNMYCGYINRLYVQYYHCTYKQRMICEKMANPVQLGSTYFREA
The assay is described as follows: SPR (Biacore), chimeric IgG captured by anti-human IgG, CLL-1 as analyte. How it is done: (§1) The chimeric anti-CLL-1 human IgG were captured by mouse anti-human IgG coated on the CM5 sensor chip. […] Association rates (kon) and dissociation rates (koff) were calculated using a simple one-to-one Langmuir binding model. The equilibrium dissociation constant (KD) was calculated as the ratio koff/kon.
In general terms: In SPR one partner is held on a chip, and binding of the other changes the refractive index at the surface.

In assay [2] the target is T2, recombinant cynomolgus CLL-1 extracellular domain (ECD, amino acids 65-265) fused to an N-terminal Flag (cynomolgus monkey).
T2 construct: Construct stated for the immunogen; also called CynoCLL-1 Flag; cynoCLL-1
T2 chain: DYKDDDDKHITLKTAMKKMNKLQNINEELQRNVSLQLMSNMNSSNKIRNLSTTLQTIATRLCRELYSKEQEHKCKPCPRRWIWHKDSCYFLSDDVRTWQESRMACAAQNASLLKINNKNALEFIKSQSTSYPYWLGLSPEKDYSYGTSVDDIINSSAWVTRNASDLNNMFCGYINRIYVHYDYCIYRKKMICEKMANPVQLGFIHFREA
The assay is described as above. Here is the method:
as §1

For assay [3], the target named is T1, recombinant human CLL-1 extracellular …. The assay is described as follows: affinity column of the TDB summary table (rounded Biacore KD of the second the 8th table / the 4th table tables).
Assay [4] deals with T2, recombinant cynomolgus CLL-1 …. Described as above.
The target in assay [5] is T3, human CLL-1 on cells (endogenous on HL-60, EOL-1 and other AML cell lines and CD14+ monocytes); recombinant on … (human, UniProt Q5QGZ9 1-265).
T3 sequence: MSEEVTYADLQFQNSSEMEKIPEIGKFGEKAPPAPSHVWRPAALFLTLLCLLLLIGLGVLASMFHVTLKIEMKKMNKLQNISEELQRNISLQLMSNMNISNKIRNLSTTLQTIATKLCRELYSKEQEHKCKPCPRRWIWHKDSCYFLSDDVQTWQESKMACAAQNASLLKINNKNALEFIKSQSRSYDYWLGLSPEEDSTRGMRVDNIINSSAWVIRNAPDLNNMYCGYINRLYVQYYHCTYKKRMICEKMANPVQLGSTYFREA
Put plainly: cell-based or functional assay.

In assay [6] the target is T3, human CLL-1 on cells (endogenous on …). The assay is described as follows: cell-based or functional assay. This is another data set of the same source.
The target is the same in assay [7]. Put plainly: cell-based or functional assay. The source holds these as a separate data set.
For assay [8], the target named is T1, recombinant human CLL-1 extracellular …. Put plainly: SPR (Biacore T200), IgG captured by anti-human Fc, CLL-1 as analyte.
Assay [9] deals with T2, recombinant cynomolgus CLL-1 …. Described as above.

Where a chain is given by its changes, count along the chain named.

Usually Kd stands for a measure of binding affinity in units of concentration. As usually defined, the koff is a measure of how fast the partners let go of each other. One may read the kon as a measure of how fast the partners come together.

B1: ch28H12 (antibody, V domains shown)
VH: QVQLQQSGAELVKPGASVKLSCTASGFNIKDTYMHWVKQRPEQGLEWIGRIDPANGDTDYDPKFQGKATVTADTSSNTAYLQLSSLTSEDTAVYYCTISGPPYYVMDYWGQGTSVTVSS
VL: DIQMTQSPASLAVSLGQRATISCRASQSVSSSSYSYMHWYQQKPGQPPKLLIKYASNLESGVPARFSGRGSGTDFTLNIHPVEEEDTATYYCQHSWEIPYTFGGGTRLEIK
notes: chimeric version of m28H12, human IgG; also called chimeric 28H12
As for B1, the Kd in [1] was 18 nM; in assay [2], 0.3 nM; in [3], 18 nM; in assay [4], 0.3 nM. The koff in [1] was found to be 0.0095 s⁻¹; in [2] it was 0.00023 s⁻¹. The kon was 500000 M⁻¹ s⁻¹ in assay [1] and 670000 M⁻¹ s⁻¹ in [2].

B2: h6E7 (6E7.L4H1e)×38E4v1 TDB (bispecific antibody, V domains shown)
VH 1: EVQLVQSGAEVKKPGASVKVSCKASGYSFTDYYMHWVRQAPGQGLEWIGRINPYNGAAFYSQNFKDRVTLTVDTSTSTAYLELSSLRSEDTAVYYCAIERGADLEGYAMDYWGQGTLVTVSS
VL 1: DIQMTQSPSSLSASVGDRVTITCRASQSVSTSSYNYMHWYQQKPGKPPKLLIKYASNLESGVPSRFSGSGSGTDFTLTISSLQPEDFATYYCQHSWEIPLTFGQGTKVEIK
VH 2: EVQLVQSGAEVKKPGASVKVSCKASGFTFTSYYIHWVRQAPGQGLEWIGWIYPENDNTKYNEKFKDRVTITADTSTSTAYLELSSLRSEDTAVYYCARDGYSRYYFDYWGQGTLVTVSS
VL 2: DIVMTQSPDSLAVSLGERATINCKSSQSLLNSRTRKNYLAWYQQKPGQSPKLLIYWTSTRKSGVPDRFSGSGSGTDFTLTISSLQAEDVAVYYCKQSFILRTFGQGTKVEIK
For B2, in assay [5], the “EC50 for killing target cells (EOL-1)” value came out at 9.1 ng/mL, the “EC50 for killing target cells (THP-1)” value came out at 5.4 ng/mL, the “EC50 of killing of EOL-1 (other donors)” value was determined as 7.4 ng/mL and the “EC50 of killing of EOL-1 target cells by cynomolgus pan-T cells” value was about 5 ng/mL. The “EC50 of killing of HL-60 (other donors)” value in assay [5] is 95.6 ng/mL. The “Cell killing EC50 (EOL-1 cells, human CD8+ T cells)” value (from here on “Cell killing EC50”) in assay [6] stood at 14 ng/mL. Also, in assay [7], the “average killing EC50, EOL-1 (n = 5)” value amounted to 4.1 ng/mL; the “average killing EC50, HL-60 (n = 2)” value is 104 ng/mL; the “average killing EC50, ML-2” value came out at 2.5 ng/mL; the “average killing EC50, Molm-13 (lowest expressor of CLL-1)” value was found to be 23 ng/mL. Besides, in [7], the “average killing EC50, NOMO-1” value was determined as 12.2 ng/mL; the “average killing EC50, PL-21” value came to 5.9 ng/mL; the “average killing EC50, THP-1 (n = 3)” value turned out to be 3.6 ng/mL; the “average killing EC50, U937” value stood at 2.1 ng/mL. In assay [7], the “average killing EC50, human autologous CD14+ (n = 3)” value came out at 2.8 ng/ml.

B3: 20B1×38E4v1 TDB (bispecific antibody, human IgG1, V domains shown)
VH 1: EVQLQQSGPELVKPGALVKISCKASGYTFTSYDINWLKQRPGQGLEWIGWIYPGDGTTEYNERFKGKATLTADKSSSTAYLQLSSLTSENSAVYFCARSYDYDYAMDYWGQGTSVTVSS
VL 1: DIVLTQSPAIMSASPGEKVTMTCSASSSISYMYWYQQKPGTSPKRWIYDTSKLASGVPARFSGSGSGTSYSLTISSMEAEDAATYYCHQRSSWTFGGGTKLEIK
VH 2: B2 VH 2
VL 2: B2 VL 2
For B3, in assay [6], the “Cell killing EC50” value is 531 ng/mL.

B4: 28H12×38E4v1 TDB (bispecific antibody, human IgG1, V domains shown)
VH 1: B1 VH
VL 1: B1 VL
VH 2: B2 VH 2
VL 2: B2 VL 2
Consider B4, for which the “Cell killing EC50” value in assay [6] was over 1000 ng/mL.

B5: 6E7.L4H1eD54 (antibody, V domains shown)
VH: B2 VH 1 with N55D
VL: B2 VL 1
notes: IgG; also called h6E7D; H6E7.L4H1D54
On to B5, for which the Kd in assay [8] came to 113 nM; in assay [9], 48.7 nM; in assay [3], 113 nM; in assay [4], 48.7 nM. Further, the results for the koff in [8] and in assay [9] were 0.0344 s⁻¹ and 0.00869 s⁻¹, respectively. Besides, the kon amounted to 304000 M⁻¹ s⁻¹ in assay [8] and 178000 M⁻¹ s⁻¹ in assay [9].

B6: ch20B1 (antibody, V domains shown)
VH: B3 VH 1
VL: B3 VL 1
notes: chimeric version of m20B1, human IgG; also called chimeric 20B1; 2061 [sic]
On to B6, for which the Kd in assay [1] was determined as 4.5 nM; in assay [2], 6.1 nM; in [3], 4.5 nM; in assay [4], 6.1 nM. The koff in assay [1] was 0.001 s⁻¹; in assay [2] it was 0.0012 s⁻¹. For the same molecule, the kon in assay [1] is 220000 M⁻¹ s⁻¹; in [2] it was 190000 M⁻¹ s⁻¹.

Values taken from patent US20200148774A1 (Genentech, published 2020).
